# B1: Pistol ribozyme (parent)
# chain: GGGUCGUUGUUCCAUAAUCGCGUGGAUAUGGCACGCAAGUUUCUACCGGGCACCGUAAAUGUCCGACUGGAGCCGUUCGGGCGGCUAUAAACAGACCUCAGGCCCGAAGCGUGGCGGCACCUGCCGCCGGUGGUAAAAAAGAUCGGAAGAGCACACGUCU
# Variants of: B1
# Experiment: aptazyme ON/OFF ratio, guanine; higher = stronger switching; co-transcriptional cleavage with and without guanine
row,Variant,aptazyme ON/OFF ratio
1,U7A U8C G9C U10C U11G C12A,1.13
2,U7A U8C G9C U10C U11G C12G,1.08
3,U7A U8C G9C U10C U11G C12U,1.06
4,U7A U8C G9U U10C U11C,0.995
5,U7A U8C G9U U10C U11G,1.22
6,U7A U8C G9U U10C U11A,1.23
7,U7A U8C G9U U10C U11A C12A C13A,1.12
8,U7A U8C G9U U10C U11A C12A C13U,1.12
9,U7A U8C G9U U10C U11A C12A C13G,1.1
10,U7A U8C G9U U10C U11G C12A C13G,1.11
11,U7A U8C G9U U10C U11G C12A C13A,1.13
12,U7A U8C G9U U10C U11G C12A C13U,1.27
13,U7A U8C G9C U10C U11A C12G C13A,1.03
14,U7A U8C G9C U10C U11A C12G C13U,1.1
15,U7A U8C G9C U10C U11A C12G C13G,1.08
16,U7A U8C G9C U11G C12A,1.08
17,U7A U8C G9C U11G C12U,1.28
18,U7A U8C G9C U11G C12G,1.12
19,U7A U8C G9C U10C,1.18
20,U7A U8C G9C U10G,1.01
21,U7A U8C G9U U10C C12U C13A,1.19

row,Variant,aptazyme ON/OFF ratio
1,U7A U8C G9U U10C C12U C13U,1.16
2,U7A U8C G9U U10C C12U C13G,1.09
3,U7A U8C G9C U10C U11G C12A C13U,1.11
4,U7A U8C G9C U10C U11G C12A C13G,1.07
5,U7A U8C G9C U10C U11G C12A C13A,1.18
6,U7A U8C G9U U10C U11C C12A C13A,1.09
7,U7A U8C G9U U10C U11C C12A C13G,1.18
8,U7A U8C G9U U10C U11C C12A C13U,1.06
9,U7A U8C G9C U10G U11C C12A,1.1
10,U7A U8C G9C U10G U11C C12G,1.21
11,U7A U8C G9C U10G U11C C12U,1.09
12,U7A U8C G9C U11A C12U C13G,1.04
13,U7A U8C G9C U11A C12U C13U,1.07
14,U7A U8C G9C U11A C12U C13A,1.09
15,U7A U8C G9C U11C C12G,1.18
16,U7A U8C G9C U11C C12A,1.04
17,U7A U8C G9C U11C C12U,1.03
18,U7A U8C G9C U10G U11G C12G C13G,1.13
19,U7A U8C G9C U10G U11G C12G C13U,1.05
20,U7A U8C G9C U10G U11G C12G C13A,1.08
21,U7A U8C G9U C12A C13A,1.15

row,Variant,aptazyme ON/OFF ratio
1,U7A U8C G9U C12A C13U,1.27
2,U7A U8C G9U C12A C13G,1.19
3,U7A U8C G9U U10A U11G C12U C13U,1.21
4,U7A U8C G9U U10A U11G C12U C13A,1.17
5,U7A U8C G9U U10A U11G C12U C13G,1.21
6,U7A U8C G9U U10C C13G,1.06
7,U7A U8C G9U U10C C13A,1.09
8,U7A U8C G9U U10C C13U,1.19
9,U7A U8C G9C U10C U11C C12A C13U,0.998
10,U7A U8C G9C U10C U11C C12A C13G,1.03
11,U7A U8C G9C U10C U11C C12A C13A,0.998
12,U7A U8C G9C U10G U11G C12A,1.24
13,U7A U8C G9C U10G U11G C12G,1.13
14,U7A U8C G9C U10G U11G C12U,1.05
15,U7A U8C G9U U10A U11G C12G C13U,1.18
16,U7A U8C G9U U10A U11G C12G C13A,1.2
17,U7A U8C G9U U10A U11G C12G C13G,1.26
18,U7A U8C G9U U10A U11A C12U C13G,1.12
19,U7A U8C G9U U10A U11A C12U C13U,1.16
20,U7A U8C G9U U10A U11A C12U C13A,1.21
21,U7A U8C G9U C12G C13U,1.37

row,Variant,aptazyme ON/OFF ratio
1,U7A U8C G9U C12G C13G,1.16
2,U7A U8C G9U C12G C13A,1.23
3,U7A U8C G9C U10C C12U C13A,1.04
4,U7A U8C G9C U10C C12U C13U,1.04
5,U7A U8C G9C U10C C12U C13G,1.06
6,U7A U8C G9U U10C U11G C12G,1.06
7,U7A U8C G9U U10C U11G C12U,1.17
8,U7A U8C G9U U10C U11G C12A,1.04
9,U7A U8C G9C U10C U11G C12G C13U,1.08
10,U7A U8C G9C U10C U11G C12G C13G,1.08
11,U7A U8C G9C U10C U11G C12G C13A,1.12
12,U7A U8C G9U U10A U11A C13A,1.17
13,U7A U8C G9U U10A U11A C13U,1.16
14,U7A U8C G9U U10A U11A C13G,1.08
15,U7A U8C G9C U10G U11G C13U,1.09
16,U7A U8C G9C U10G U11G C13A,1.12
17,U7A U8C G9C U10G U11G C13G,1.08
18,U7A U8C G9U U10C U11C C12G C13U,1.04
19,U7A U8C G9U U10C U11C C12G C13A,1.04
20,U7A U8C G9U U10C U11C C12G C13G,1.22

# — the RNAGym collection of RNA variant scans (doi:10.1021/acssynbio.7b00057)
